Test results taken from paper doi:10.1101/2025.10.04.680434.

Biological target: human 40S ribosomal subunit (human) (UniProt P62269)
Experiment: cryo-EM structure

human eIF3 (from UniProt P55884 1-814; Q99613 1-913; O15371 1-548; O75821 1-320; Q13347 1-325) (complex)
other: 40%
